Target: fibrin (human fibrinogen treated with alpha-thrombin) (human) (UniProt P02679)
Test: ELISA; human fibrinogen coated overnight on MaxSorb 96-well plates, wells treated with PBS (fibrinogen) or 100 nM alpha-thrombin in 1% sodium-citrate/PBS for one hour at room temperature (fibrin); ClfA in 1% sodium-citrate added at increasing concentrations for one hour; bound ClfA detected with polyclonal anti-ClfA and anti-rabbit-HRP; non-linear regression, one-site saturation

Chain of clumping factor A (ClfA), purified recombinant (Q53653 40-899): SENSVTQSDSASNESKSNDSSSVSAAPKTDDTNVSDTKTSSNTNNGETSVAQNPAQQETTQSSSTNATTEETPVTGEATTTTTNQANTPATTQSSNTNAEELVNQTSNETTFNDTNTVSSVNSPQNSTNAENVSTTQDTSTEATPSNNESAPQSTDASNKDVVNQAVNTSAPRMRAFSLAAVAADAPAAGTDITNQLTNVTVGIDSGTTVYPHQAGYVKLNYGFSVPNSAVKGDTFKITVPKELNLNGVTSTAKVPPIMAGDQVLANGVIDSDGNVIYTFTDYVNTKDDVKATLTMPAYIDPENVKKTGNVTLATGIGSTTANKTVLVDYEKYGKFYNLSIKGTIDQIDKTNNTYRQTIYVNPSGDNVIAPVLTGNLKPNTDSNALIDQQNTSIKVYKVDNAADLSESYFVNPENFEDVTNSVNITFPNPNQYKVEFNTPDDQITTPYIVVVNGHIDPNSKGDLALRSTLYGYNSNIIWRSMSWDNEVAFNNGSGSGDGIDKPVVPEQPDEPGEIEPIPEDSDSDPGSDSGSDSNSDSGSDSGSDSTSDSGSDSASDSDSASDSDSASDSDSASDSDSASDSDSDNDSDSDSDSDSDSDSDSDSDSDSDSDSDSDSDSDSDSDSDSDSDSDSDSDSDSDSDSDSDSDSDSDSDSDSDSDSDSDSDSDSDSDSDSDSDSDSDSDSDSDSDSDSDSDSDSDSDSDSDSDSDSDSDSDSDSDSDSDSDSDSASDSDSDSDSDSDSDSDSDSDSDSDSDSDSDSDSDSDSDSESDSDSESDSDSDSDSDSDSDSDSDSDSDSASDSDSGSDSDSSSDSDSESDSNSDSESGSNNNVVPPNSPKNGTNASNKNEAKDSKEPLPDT

clumping factor A (ClfA), purified recombinant (from UniProt Q53653 40-899) (natural protein)
Kd: 662 nM
